Measured values taken from patent US20130177924A1.

Assays:
[1] = molecular target: blocked scFv having an HRV-3C protease substrate in the peptide linker (H6-MG VH / HL1-TO1 VL), pept; experiment: cell-based or functional assay
[2] = molecular target: blocked scFv having a caspase 3 protease substrate in the peptide linker (H6-MG VH / HL1-TO1 VL), peptide construct SEQ ID NO:51, displayed on yeast; experiment: cell-based or functional assay

Substance	time to complete activation of MG fluorescence, 10^6 yeast cells with 1 unit of HRV-3C protease at 25 C [1] [min]	time to complete activation of MG fluorescence, 10^6 yeast cells with 1 unit of caspase 3 protease at 25 C [2] [min]
Human Rhinovirus 3C protease (enzyme)	30	
caspase 3 protease (enzyme)		30
